Measured values from patent US20170369592A1, “NOVEL ANTI-FIBROBLAST ACTIVATION PROTEIN (FAP) ANTIBODIES AND USES DERIVED THEREOF” (Mabimmune Diagnostics AG, priority 2015, published 2017).

Assays:
FAP = target: T1, FAP (Homo sapiens, UniProt Q12884); test: Binding specificity ELISA versus CD26 and unrelated human antigens; conditions: detection antibody at 20, 4 and 0.8 nM
T1 sequence (Q12884 1-760): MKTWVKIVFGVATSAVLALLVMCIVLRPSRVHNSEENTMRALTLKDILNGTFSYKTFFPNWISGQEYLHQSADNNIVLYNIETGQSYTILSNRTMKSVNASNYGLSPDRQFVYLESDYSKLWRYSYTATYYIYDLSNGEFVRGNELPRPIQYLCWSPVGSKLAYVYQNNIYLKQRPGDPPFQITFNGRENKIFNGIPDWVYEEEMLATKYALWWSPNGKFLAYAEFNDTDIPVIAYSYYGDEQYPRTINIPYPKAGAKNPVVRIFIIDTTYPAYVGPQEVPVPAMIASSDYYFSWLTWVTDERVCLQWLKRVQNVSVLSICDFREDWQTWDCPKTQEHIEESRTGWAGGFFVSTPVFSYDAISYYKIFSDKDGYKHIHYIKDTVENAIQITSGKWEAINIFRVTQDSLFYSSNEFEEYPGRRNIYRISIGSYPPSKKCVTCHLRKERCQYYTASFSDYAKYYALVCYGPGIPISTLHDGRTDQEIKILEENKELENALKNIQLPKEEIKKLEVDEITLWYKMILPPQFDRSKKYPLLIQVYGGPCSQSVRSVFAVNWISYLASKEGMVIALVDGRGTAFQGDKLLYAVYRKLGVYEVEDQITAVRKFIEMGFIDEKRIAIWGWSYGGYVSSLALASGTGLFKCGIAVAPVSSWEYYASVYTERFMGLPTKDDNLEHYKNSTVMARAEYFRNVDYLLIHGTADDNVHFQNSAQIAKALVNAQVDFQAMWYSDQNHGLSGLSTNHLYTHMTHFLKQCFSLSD
Protocol: A mouse anti-6×-histidine tag antibody (Clonetech) was coated at a concentration of 3 μg/ml in PBS to a 96 well ELISA plate, the plates were then blocked with 5% BSA in PBS, and enzymatically active recombinant human FAP with an N-terminus 6× histidine tag was added to the plates to be captured. The binding efficiency of NI-206.82C2 (at 20 nM, 4 nM, and 0.8 nM) against sFAP was then tested by 1 hour incubation, followed by washing with PBS and detection with an HRP-labelled goat anti-human antibody (Jackson Immunoresearch) using a colormetric assay. To assess NI-206.82C2 binding other targets, recombinant human CD26 and fourteen other unrelated recombinant human proteins (A-N) were individually added to a 96-well ELISA plate in triplicate, and the binding efficacy of NI-206.82C2 was evaluated. (FIG. 7A)

FAP from human plasma = target: T2, FAP from human plasma (Homo sapiens, UniProt Q12884); test: Immunoprecipitation of FAP from human plasma, α2AP-AMC cleavage in supernatant; type: biochemical; conditions: compared to plasma before immunoprecipitation
T2 construct: from tissue; host or cells: human blood plasma
T2 sequence (Q12884 24-760 limits assumed): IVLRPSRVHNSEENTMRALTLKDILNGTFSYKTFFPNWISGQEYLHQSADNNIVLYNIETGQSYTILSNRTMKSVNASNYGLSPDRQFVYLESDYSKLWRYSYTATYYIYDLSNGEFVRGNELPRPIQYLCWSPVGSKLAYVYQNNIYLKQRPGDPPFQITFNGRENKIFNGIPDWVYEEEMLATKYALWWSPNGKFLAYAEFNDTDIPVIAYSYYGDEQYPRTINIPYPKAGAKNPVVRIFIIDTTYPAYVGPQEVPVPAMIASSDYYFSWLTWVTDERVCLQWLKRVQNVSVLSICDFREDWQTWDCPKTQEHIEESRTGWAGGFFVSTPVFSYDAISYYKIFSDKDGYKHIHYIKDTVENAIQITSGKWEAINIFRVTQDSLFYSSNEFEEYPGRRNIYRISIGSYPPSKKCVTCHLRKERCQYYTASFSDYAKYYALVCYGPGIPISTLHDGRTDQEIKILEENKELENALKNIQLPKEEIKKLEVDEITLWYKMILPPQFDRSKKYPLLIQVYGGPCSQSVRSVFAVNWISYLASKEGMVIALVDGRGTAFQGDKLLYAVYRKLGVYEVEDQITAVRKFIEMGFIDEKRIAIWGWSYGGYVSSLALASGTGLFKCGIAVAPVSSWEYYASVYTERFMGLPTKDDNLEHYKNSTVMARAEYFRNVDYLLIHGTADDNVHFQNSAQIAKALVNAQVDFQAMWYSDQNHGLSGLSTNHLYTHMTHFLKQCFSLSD
Protocol: 100 μL of PureProteome G Magnetic Beads (Millipore LSKMAGG02) were suspended in 500 μL of 25 mM TRIS, 0.15M NaCl, and 0.1% Tween 20. Human plasma was diluted 1:5 in PBS to an end volume of 125 μL, separated into four tubes, and incubated for 30 min at RT with rotation. Beads were then collected with a magnetic stand, and the pre-cleared supernatant was transferred to a new tube containing magnetic beads coated with 82C2, 43A11, or 3A1. Antibody-conjugated beads were incubated with the plasma dilution overnight at 4° C. while rotating. Beads were then collected with a magnetic stand and the supernatant was removed of analysis of α2AP-AMC cleavage activity. To determine α2AP-AMC activity in the supernatants, a half area black 96 well plate was blocked with sterile filtered 5% BSA at 37° C. for 1h. Then 40 μL of PBS was added to all the wells, 5 μL of the supernatant solutions to the appropriate wells, and 5 μL of α2AP-AMC solution in methanol was added for a final assay concentration of 10 μM. The fluorescence intensity (cleaved AMC) was measured at 360 nm excitation and 460 nm emission every 3 min over a total time of 30 min and the reaction velocity was calculated using Graphpad Prism 6 software.

colorimetric signal against recombinant human FAP versus CD26 and unrelated human antigens (FAP): significantly greater | rate of FAP substrate alpha 2 anti-plasmin (α2AP-AMC) cleavage in plasma after immunoprecipitation (FAP from human plasma): significantly reduces
B1: NI-206.82C2: recombinant human memory B cell-derived monoclonal anti-FAP IgG1 antibody, variable regions in FIG. 1A, FAP inhibitory (antibody, V domains shown)
VH: QVQLQQSGPGLVKPSQTLSLTCAISGDSVSSNSVTWNWIRQSPSRGLEWLGRTYYRSKWYNDYAVSVKGRITINPDTSKNQFYLQLKSVTPEDAAVYYCARDSSILYGDYWGQGTLVTVSS
VL: QAVLTQPSSLSASPGASASLTCTLPSGINVGTYRIFWFQQKPGSPPQYLLSYKSDSDNHQGSGVPSRFSGSKDASANAGILLISGLQSEDEADYYCMIWHSSAWVFGGGTKLTVL
